From IntAct's records for PubMed 39009827

B1: Epithelial sodium channel subunit beta (Homo sapiens), P51168 (parent)
chain: MHVKKYLLKGLHRLQKGPGYTYKELLVWYCDNTNTHGPKRIICEGPKKKAMWFLLTLLFAALVCWQWGIFIRTYLSWEVSVSLSVGFKTMDFPAVTICNASPFKYSKIKHLLKDLDELMEAVLERILAPELSHANATRNLNFSIWNHTPLVLIDERNPHHPMVLDLFGDNHNGLTSSSASEKICNAHGCKMAMRLCSLNRTQCTFRNFTSATQALTEWYILQATNIFAQVPQQELVEMSYPGEQMILACLFGAEPCNYRNFTSIFYPHYGNCYIFNWGMTEKALPSANPGTEFGLKLILDIGQEDYVPFLASTAGVRLMLHEQRSYPFIRDEGIYAMSGTETSIGVLVDKLQRMGEPYSPCTVNGSEVPVQNFYSDYNTTYSIQACLRSCFQDHMIRNCNCGHYLYPLPRGEKYCNNRDFPDWAHCYSDLQMSVAQRETCIGMCKESCNDTQYKMTISMADWPSEASEDWIFHVLSQERDQSTNITLSRKGIVKLNIYFQEFNYRTIEESAANNIVWLLSNLGGQFGFWMGGSVLCLIEFGEIIIDFVWITIIKLVALAKSLRQRRAQASYAGPPPTVAELVEAHTNFGFQPDTAPRSPNTGPYPSEQALPIPGTPPPNYDSLRLQPLDVIESDSEGDAI
B2: Fanconi anemia group A protein (Homo sapiens), O15360 (parent)
chain: MSDSWVPNSASGQDPGGRRRAWAELLAGRVKREKYNPERAQKLKESAVRLLRSHQDLNALLLEVEGPLCKKLSLSKVIDCDSSEAYANHSSSFIGSALQDQASRLGVPVGILSAGMVASSVGQICTAPAETSHPVLLTVEQRKKLSSLLEFAQYLLAHSMFSRLSFCQELWKIQSSLLLEAVWHLHVQGIVSLQELLESHPDMHAVGSWLFRNLCCLCEQMEASCQHADVARAMLSDFVQMFVLRGFQKNSDLRRTVEPEKMPQVTVDVLQRMLIFALDALAAGVQEESSTHKIVRCWFGVFSGHTLGSVISTDPLKRFFSHTLTQILTHSPVLKASDAVQMQREWSFARTHPLLTSLYRRLFVMLSAEELVGHLQEVLETQEVHWQRVLSFVSALVVCFPEAQQLLEDWVARLMAQAFESCQLDSMVTAFLVVRQAALEGPSAFLSYADWFKASFGSTRGYHGCSKKALVFLFTFLSELVPFESPRYLQVHILHPPLVPGKYRSLLTDYISLAKTRLADLKVSIENMGLYEDLSSAGDITEPHSQALQDVEKAIMVFEHTGNIPVTVMEASIFRRPYYVSHFLPALLTPRVLPKVPDSRVAFIESLKRADKIPPSLYSTYCQACSAAEEKPEDAALGVRAEPNSAEEPLGQLTAALGELRASMTDPSQRDVISAQVAVISERLRAVLGHNEDDSSVEISKIQLSINTPRLEPREHMAVDLLLTSFCQNLMAASSVAPPERQGPWAALFVRTMCGRVLPAVLTRLCQLLRHQGPSLSAPHVLGLAALAVHLGESRSALPEVDVGPPAPGAGLPVPALFDSLLTCRTRDSLFFCLKFCTAAISYSLCKFSSQSRDTLCSCLSPGLIKKFQFLMFRLFSEARQPLSEEDVASLSWRPLHLPSADWQRAALSLWTHRTFREVLKEEDVHLTYQDWLHLELEIQPEADALSDTERQDFHQWAIHEHFLPESSASGGCDGDLQAACTILVNALMDFHQSSRSYDHSENSDLVFGGRTGNEDIISRLQEMVADLELQQDLIVPLGHTPSQEHFLFEIFRRRLQALTSGWSVAASLQRQRELLMYKRILLRLPSSVLCGSSFQAEQPITARCEQFFHLVNSEMRNFCSHGGALTQDITAHFFRGLLNACLRSRDPSLMVDFILAKCQTKCPLILTSALVWWPSLEPVLLCRWRRHCQSPLPRELQKLQEGRQFASDFLSPEAASPAPNPDWLSAAALHFAIQQVREENIRKQLKKLDCEREELLVFLFFFSLMGLLSSHLTSNSTTDLPKAFHVCAAILECLEKRKISWLALFQLTESDLRLGRLLLRVAPDQHTRLLPFAFYSLLSYFHEDAAIREEAFLHVAVDMYLKLVQLFVAGDTSTVSPPAGRSLELKGQGNPVELITKARLFLLQLIPRCPKKSFSHVAELLADRGDCDPEVSAALQSRQQAAPDADLSQEPHLF
B3: "Poly(A) RNA polymerase, mitochondrial" (Homo sapiens), Q9NVV4 (parent)
chain: MAVPGVGLLTRLNLCARRRTRVQRPIVRLLSCPGTVAKDLRRDEQPSGSVETGFEDKIPKRRFSEMQNERREQAQRTVLIHCPEKISENKFLKYLSQFGPINNHFFYESFGLYAVVEFCQKESIGSLQNGTHTPSTAMETAIPFRSRFFNLKLKNQTSERSRVRSSNQLPRSNKQLFELLCYAESIDDQLNTLLKEFQLTEENTKLRYLTCSLIEDMAAAYFPDCIVRPFGSSVNTFGKLGCDLDMFLDLDETRNLSAHKISGNFLMEFQVKNVPSERIATQKILSVLGECLDHFGPGCVGVQKILNARCPLVRFSHQASGFQCDLTTNNRIALTSSELLYIYGALDSRVRALVFSVRCWARAHSLTSSIPGAWITNFSLTMMVIFFLQRRSPPILPTLDSLKTLADAEDKCVIEGNNCTFVRDLSRIKPSQNTETLELLLKEFFEYFGNFAFDKNSINIRQGREQNKPDSSPLYIQNPFETSLNISKNVSQSQLQKFVDLARESAWILQQEDTDRPSISSNRPWGLVSLLLPSAPNRKSFTKKKSNKFAIETVKNLLESLKGNRTENFTKTSGKRTISTQT
B4: Radial spoke head protein 4 homolog A (Homo sapiens), Q5TD94 (parent)
chain: MEDSTSPKQEKENQEELGETRRPWEGKTAASPQYSEPESSEPLEAKQGPETGRQSRSSRPWSPQSRAKTPLGGPAGPETSSPAPVSPREPSSSPSPLAPARQDLAAPPQSDRTTSVIPEAGTPYPDPLEQSSDKRESTPHHTSQSEGNTFQQSQQPKPHLCGRRDVSYNNAKQKELRFDVFQEEDSNSDYDLQQPAPGGSEVAPSMLEITIQNAKAYLLKTSSNSGFNLYDHLSNMLTKILNERPENAVDIFENISQDVKMAHFSKKFDALQNENELLPTYEIAEKQKALFLQGHLEGVDQELEDEIAENALPNVMESAFYFEQAGVGLGTDETYRIFLALKQLTDTHPIQRCRFWGKILGLEMNYIVAEVEFREGEDEEEVEEEDVAEERDNGESEAHEDEEDELPKSFYKAPQAIPKEESRTGANKYVYFVCNEPGRPWVKLPPVIPAQIVIARKIKKFFTGRLDAPIISYPPFPGNESNYLRAQIARISAGTHVSPLGFYQFGEEEGEEEEEAEGGRNSFEENPDFEGIQVIDLVESLSNWVHHVQHILSQGRCNWFNSIQKNEEEEEEEDEEKDDSDYIEQEVGLPLLTPISEDLEIQNIPPWTTRLSSNLIPQYAIAVLQSNLWPGAYAFSNGKKFENFYIGWGHKYSPDNYTPPVPPPVYQEYPSGPEITEMDDPSVEEEQAFRAAQEAVLLAAENEESEEDEDEEDDYD
B5: Zinc finger protein GLIS2 (Homo sapiens), Q9BZE0 (parent)
chain: MHSLDEPLDLKLSITKLRAAREKRERTLGVVRPRALHRELGLVDDSPTPGSPGSPPSGFLLNSKFPEKVEGRFSAAPLVDLSLSPPSGLDSPNGSSSLSPERQGNGDLPPVPSASDFQPLRYLDGVPSSFQFFLPLGSGGALHLPASSFLTPPKDKCLSPDLPLPKQLVCRWAKCNQLFELLQDLVDHVNDYHVKPEKDAGYCCHWEGCARHGRGFNARYKMLIHIRTHTNEKPHRCPTCSKSFSRLENLKIHNRSHTGEKPYVCPYEGCNKRYSNSSDRFKHTRTHYVDKPYYCKMPGCHKRYTDPSSLRKHIKAHGHFVSHEQQELLQLRPPPKPPLPAPDGGPYVSGAQIIIPNPAALFGGPGLPGLPLPLAPGPLDLSALACGNGGGSGGGGGMGPGLPGPVLPLNLAKNPLLPSPFGAGGLGLPVVSLLAGAAGGKAEGEKGRGSVPTRALGMEGHKTPLERTESSCSRPSPDGLPLLPGTVLDLSTGVNSAASSPEALAPGWVVIPPGSVLLKPAVVN

Variants of: B1
Conditions: with nedd4_human NEDD4, P46934
Target sequence in this assay (P46934 whole entry): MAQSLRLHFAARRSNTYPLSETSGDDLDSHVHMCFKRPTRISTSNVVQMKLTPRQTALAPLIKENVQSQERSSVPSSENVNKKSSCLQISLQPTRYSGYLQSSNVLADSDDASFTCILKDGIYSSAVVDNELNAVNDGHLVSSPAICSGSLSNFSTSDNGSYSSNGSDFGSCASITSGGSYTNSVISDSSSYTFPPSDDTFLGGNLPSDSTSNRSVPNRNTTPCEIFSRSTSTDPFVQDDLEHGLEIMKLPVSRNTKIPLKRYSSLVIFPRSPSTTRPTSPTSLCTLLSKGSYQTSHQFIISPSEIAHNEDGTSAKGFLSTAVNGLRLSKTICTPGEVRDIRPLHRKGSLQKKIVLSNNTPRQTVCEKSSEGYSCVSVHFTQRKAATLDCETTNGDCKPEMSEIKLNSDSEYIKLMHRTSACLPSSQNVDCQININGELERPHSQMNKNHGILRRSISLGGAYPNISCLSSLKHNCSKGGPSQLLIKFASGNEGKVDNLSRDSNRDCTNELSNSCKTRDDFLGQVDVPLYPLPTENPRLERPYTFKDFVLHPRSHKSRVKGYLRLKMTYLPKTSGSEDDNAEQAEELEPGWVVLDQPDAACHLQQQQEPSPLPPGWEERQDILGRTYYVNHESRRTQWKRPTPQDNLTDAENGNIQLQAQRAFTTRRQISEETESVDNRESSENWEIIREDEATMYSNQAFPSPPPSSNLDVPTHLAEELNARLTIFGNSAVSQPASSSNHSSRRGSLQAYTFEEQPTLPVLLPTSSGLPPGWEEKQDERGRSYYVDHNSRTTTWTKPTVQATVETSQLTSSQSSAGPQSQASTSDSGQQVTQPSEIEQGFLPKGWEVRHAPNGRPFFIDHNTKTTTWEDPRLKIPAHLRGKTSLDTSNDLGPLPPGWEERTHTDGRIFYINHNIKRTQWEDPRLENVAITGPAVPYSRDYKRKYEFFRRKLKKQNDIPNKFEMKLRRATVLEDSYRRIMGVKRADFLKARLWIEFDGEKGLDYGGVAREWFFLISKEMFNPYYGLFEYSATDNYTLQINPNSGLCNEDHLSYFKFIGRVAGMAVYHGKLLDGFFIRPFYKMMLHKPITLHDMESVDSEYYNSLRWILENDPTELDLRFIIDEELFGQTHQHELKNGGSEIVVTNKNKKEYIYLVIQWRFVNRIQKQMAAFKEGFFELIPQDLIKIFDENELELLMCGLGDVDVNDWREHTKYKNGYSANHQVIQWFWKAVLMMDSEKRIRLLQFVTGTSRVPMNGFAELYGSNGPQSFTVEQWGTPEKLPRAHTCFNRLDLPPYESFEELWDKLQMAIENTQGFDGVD

Variant	effect of a mutation on the interaction
Y620H	decreasing interaction strength
P618R	decreasing interaction strength

Variants of: B1
Conditions: with wwtr1_human WWTR1, Q9GZV5
wwtr1_human WWTR1, Q9GZV5, sequence (Q9GZV5 whole entry): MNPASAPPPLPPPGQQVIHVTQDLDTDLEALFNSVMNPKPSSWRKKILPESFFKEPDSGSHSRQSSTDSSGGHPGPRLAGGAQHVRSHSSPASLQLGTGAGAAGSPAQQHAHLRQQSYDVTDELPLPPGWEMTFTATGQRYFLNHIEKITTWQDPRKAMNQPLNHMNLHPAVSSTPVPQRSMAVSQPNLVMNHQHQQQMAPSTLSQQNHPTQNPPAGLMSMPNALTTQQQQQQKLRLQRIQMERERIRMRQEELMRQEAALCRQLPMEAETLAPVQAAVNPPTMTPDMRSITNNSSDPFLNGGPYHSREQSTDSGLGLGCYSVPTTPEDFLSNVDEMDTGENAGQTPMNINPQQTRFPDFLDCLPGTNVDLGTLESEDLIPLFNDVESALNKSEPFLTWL

Variant	effect of a mutation on the interaction
Y620H	decreasing interaction strength
P618R	decreasing interaction strength

Variants of: B2
Conditions: with cskp_human CASK

Variant	effect of a mutation on the interaction
S4L	causing an interaction

Variants of: B3
Conditions: with eps15_human EPS15, P42566
eps15_human EPS15, P42566, sequence (P42566 whole entry): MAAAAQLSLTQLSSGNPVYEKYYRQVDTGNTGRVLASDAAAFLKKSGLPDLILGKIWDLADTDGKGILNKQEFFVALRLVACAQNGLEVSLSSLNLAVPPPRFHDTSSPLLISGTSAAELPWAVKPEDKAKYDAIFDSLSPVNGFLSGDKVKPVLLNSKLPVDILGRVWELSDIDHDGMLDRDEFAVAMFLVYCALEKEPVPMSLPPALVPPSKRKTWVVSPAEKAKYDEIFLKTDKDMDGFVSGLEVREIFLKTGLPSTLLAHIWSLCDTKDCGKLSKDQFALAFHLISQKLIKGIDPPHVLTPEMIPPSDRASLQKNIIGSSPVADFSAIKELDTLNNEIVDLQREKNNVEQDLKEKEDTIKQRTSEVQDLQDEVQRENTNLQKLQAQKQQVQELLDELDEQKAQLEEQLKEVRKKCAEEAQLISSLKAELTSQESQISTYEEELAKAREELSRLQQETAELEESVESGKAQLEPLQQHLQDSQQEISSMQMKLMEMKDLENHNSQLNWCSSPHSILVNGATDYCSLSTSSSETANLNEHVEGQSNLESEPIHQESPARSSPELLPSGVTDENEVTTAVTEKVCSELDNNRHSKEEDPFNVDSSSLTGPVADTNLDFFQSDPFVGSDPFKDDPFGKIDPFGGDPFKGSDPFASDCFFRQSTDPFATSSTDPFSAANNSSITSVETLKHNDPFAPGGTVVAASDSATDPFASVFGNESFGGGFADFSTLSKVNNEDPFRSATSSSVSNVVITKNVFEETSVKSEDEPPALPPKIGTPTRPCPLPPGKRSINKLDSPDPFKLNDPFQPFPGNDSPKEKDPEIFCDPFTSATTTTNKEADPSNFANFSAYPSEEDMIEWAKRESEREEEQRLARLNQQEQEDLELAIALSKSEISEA

Variant	effect of a mutation on the interaction
MAVPGVGLLTRLNLCARRRTRVQRPIVRLLSCPGTVAKDLRRDEQPSGSVETGFEDKIPKRRFSEMQNERREQAQRTVLIHCPEKISENKFLKYLSQFGPINNHFFYESFGLYAVVEFCQKESIGSLQNGTHTPSTAMETAIPFRSRFFNLKLKNQTSERSRVRSSNQLPRSNKQLFELLCYAESIDDQLNTLLKEFQLTEENTKLRYLTCSLIEDMAAAYFPDCIVRPFGSSVNTFGKLGCDLDMFLDLDETRNLSAHKISGNFLMEFQVKNVPSERIATQKILSVLGECLDHFGPGCVGVQKILNARCPLVRFSHQASGFQCDLTTNNRIALTSSELLYIYGALDSRVRALVFSVRCWARAHSLTSSIPGAWITNFSLTMMVIFFLQRRSPPILPTLDSLKTLADAEDKCVIEGNNCTFVRDLSRIKPSQNTETLELLLKEFFEYFGNFAFDKNSINIRQGREQNKPDSSPLYIQDPFETSLNISKNVSQSQLQKFVDLARESAWILQQEDTDRPSISSNRPWGLVSLLLPSAPNRKSFTKKKSNKFAIETVKNLLESLKGNRTENFTKTSGKRTISTQT [N478D]	decreasing interaction strength

Variants of: B4
Conditions: with nedd4_human NEDD4, P46934
Target sequence in this assay (P46934 whole entry): as the sequence (P46934 whole entry) above

Variant	effect of a mutation on the interaction
P664S	decreasing interaction strength

Variants of: B5
Conditions: with ptbp1_human PTBP1, P26599
ptbp1_human PTBP1, P26599, sequence (P26599 whole entry): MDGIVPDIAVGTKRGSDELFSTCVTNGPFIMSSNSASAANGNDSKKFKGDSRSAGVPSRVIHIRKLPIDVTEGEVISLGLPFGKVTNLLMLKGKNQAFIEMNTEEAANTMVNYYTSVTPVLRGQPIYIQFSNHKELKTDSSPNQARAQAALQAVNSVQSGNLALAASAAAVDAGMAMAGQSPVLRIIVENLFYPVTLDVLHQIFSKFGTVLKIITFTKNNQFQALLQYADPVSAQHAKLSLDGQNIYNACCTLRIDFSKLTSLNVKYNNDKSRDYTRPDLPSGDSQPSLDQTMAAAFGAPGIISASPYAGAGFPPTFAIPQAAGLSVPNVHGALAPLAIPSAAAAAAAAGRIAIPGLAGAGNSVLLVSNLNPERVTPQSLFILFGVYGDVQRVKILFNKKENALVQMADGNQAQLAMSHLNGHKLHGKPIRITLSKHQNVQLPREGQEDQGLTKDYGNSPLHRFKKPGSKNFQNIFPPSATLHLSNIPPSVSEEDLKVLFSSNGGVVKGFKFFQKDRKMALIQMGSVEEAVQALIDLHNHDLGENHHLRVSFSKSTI

Variant	effect of a mutation on the interaction
MHSLDEPLDLKLSITKLRAAREKRERTLGVVRPRALHRELGLVDDSPTPGSPGSPPSGFLLNSKFPEKVEGRFSAAPLVDLSLSPPSGLDSPNGSSSLSPERQGNGDLPPVPSASDFQPLRYLDGVPSSFQFFLPLGSGGALHLPASSFLTPPKDKCLSPDLPLPKQLVCRWAKCNQLFELLQDLVDHVNDYHVKPEKDAGYCCHWEGCARHGRGFNARYKMLIHIRTHTNEKPHRCPTCSKSFSRLENLKIHNRSHTGEKPYVCPYEGCNKRYSNSSDRFKHTRTHYVDKPYYCKMPGCHKRYTDPSSLRKHIKAHGHFVSHEQQELLQLRPPPKPPLPAPDGGPYVSGAQIIIPNPAALFGGPGLPGLPLPLAPGPLDLSALACGNGGGSGGGGGMGPGLPGPVLPLNLAKNPLLPSLFGAGGLGLPVVSLLAGAAGGKAEGEKGRGSVPTRALGMEGHKTPLERTESSCSRPSPDGLPLLPGTVLDLSTGVNSAASSPEALAPGWVVIPPGSVLLKPAVVN [P420L]	decreasing interaction strength
